Results from the supplement of paper PMC10126150.
± gives the standard deviation of the averaged measurements.

Tested on: ATP
Test: switch fluorescence ratio, 500 uM ATP over buffer (Cy3 cluster intensity, sum of 5 cycles each) (fold (ratio)); higher = stronger signal-on switching upon ATP binding; sequences stand for … in TCGTCGGCAGCGTCAGATGTGTATAAGAGACAGTTTTTTTTTTTTTTTTTTTTTTTTT…TC
Settings: aptamer strand: ATP DNA aptamer (quencher-CACCTGGGGGAGTATTGCGGAGGAAGG + anchor), 100 nM annealed; ATP concentration: 500 uM
Procedure, shortened: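 The fluorescence ratio divides summed target-cycle Cy3 intensity by summed buffer-cycle Cy3 intensity for each cluster and is averaged per switch-domain sequence. Cy3-labelled switching-strand clusters on a modified Illumina MiSeq flow-cell were annealed to 100 nM quencher-labelled ATP aptamer, then imaged in selection buffer and again after 15 min with 500 uM ATP at 22 °C. Five such cycles were run, with NaOH stripping and re-annealing between them, and clusters outside 100-1000 RFU were excluded.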
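Further: ATP exposure 15 min at 22 °C before imaging.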

Sequence	switch fluorescence ratio
GATGCGGCGT	1.04 ± 0.021
GATGCGTATG	0.997 ± 0.02
GATGCTGGGT	1.01 ± 0.014
GATGGAACGG	1.05 ± 0.039
GATGGACGTT	0.995 ± 0.035
GATGGACTTT	1.03 ± 0.013
GATGGAGTAA	1.08 ± 0.042
GATGGATAGT	0.992 ± 0.02
GATGGCGGTG	0.995 ± 0.00091
GATGGGCACT	1.05 ± 0.029
GATGGGCGGG	1.03 ± 0.055
GATGGGGAGG	0.98 ± 0.032
GATGGGGGAG	0.999 ± 0.018
GATGGGGGGC	1.01 ± 0.043
GATGGGGTTT	1 ± 0.014
GATGGGTAAA	0.992 ± 0.029
GATGGTGGTG	1 ± 0.029
GATGGTTTGA	1.02 ± 0.021
GATGTAAACG	1.02 ± 0.026
GATGTAAGAA	0.993 ± 0.028
GATGTAAGGT	1.02 ± 0.029
GATGTAATAG	1.57 ± 0.19
GATGTAGGAG	0.971 ± 0.019
GATGTAGGGC	1 ± 0.028
GATGTATAGA	1.01 ± 0.022

Sequence	switch fluorescence ratio
GATGTATATT	1.002 ± 0.004
GATGTATGTG	1.02 ± 0.042
GATGTCTAGT	0.983 ± 0.015
GATGTCTGGG	0.959 ± 0.027
GATGTGAATT	1.02 ± 0.011
GATGTGATTC	1.04 ± 0.027
GATGTGGGGG	0.99 ± 0.028
GATGTGGGTA	0.992 ± 0.045
GATGTGGGTG	0.9957 ± 0.0054
GATGTGGGTT	1.03 ± 0.032
GATGTGTTTT	0.974 ± 0.02
GATGTTAAGC	0.9867 ± 0.0095
GATGTTATCG	0.99 ± 0.015
GATGTTGATT	0.997 ± 0.014
GATGTTGTGA	0.9999 ± 0.0076
GATGTTGTTG	0.997 ± 0.054
GATGTTTAGT	1.04 ± 0.018
GATTAAAAGG	1.017 ± 0.0067
GATTAAATAG	0.9988 ± 0.0032
GATTAATGGC	1.04 ± 0.052
GATTACATTT	1.03 ± 0.022
GATTAGGGGA	1.01 ± 0.015
GATTAGGGGG	1.02 ± 0.043
GATTAGTGTT	1.01 ± 0.021
GATTATGGGG	1.01 ± 0.013

Sequence	switch fluorescence ratio
GATTATTGGG	0.988 ± 0.036
GATTCCCTAT	0.99995 ± 0.00076
GATTCCTCAT	1.015 ± 0.0095
GATTCGGTCT	1.02 ± 0.058
GATTCGGTTG	0.9897 ± 0.0011
GATTCGTACG	1.01 ± 0.016
GATTCTCGGG	1.01 ± 0.016
GATTCTTATG	1.03 ± 0.036
GATTCTTGAA	1.01 ± 0.22
GATTGAATAT	0.983 ± 0.032
GATTGAATCC	1.01 ± 0.059
GATTGAATTG	0.948 ± 0.027
GATTGAGAAG	0.996 ± 0.023
GATTGAGTAG	0.986 ± 0.016
GATTGGCGAG	0.998 ± 0.011
GATTGGGCTT	0.998 ± 0.0097
GATTGGTGGC	1.04 ± 0.049
GATTGTACGA	1.01 ± 0.031
GATTGTACTA	0.998 ± 0.019
GATTGTAGTG	0.993 ± 0.032
GATTGTGCGG	0.981 ± 0.025
GATTGTGCTG	0.988 ± 0.01
GATTGTGGAC	1.1 ± 0.063
GATTTAGAGC	0.973 ± 0.037
GATTTAGCTA	1.014 ± 0.0034

Sequence	switch fluorescence ratio
GATTTAGGAC	0.967 ± 0.044
GATTTAGGGA	0.995 ± 0.039
GATTTATGAC	1.02 ± 0.038
GATTTCAAAC	0.9817 ± 0.0045
GATTTCATAG	1.02 ± 0.063
GATTTGAAAC	1 ± 0.031
GATTTGAGGG	0.973 ± 0.032
GATTTGCCGA	1.034 ± 0.005
GATTTGGAAG	1.01 ± 0.024
GATTTGGAGA	1 ± 0.017
GATTTGGCGA	0.992 ± 0.011
GATTTGGCTC	1 ± 0.031
GATTTGGTTG	0.963 ± 0.026
GATTTGTGTG	0.978 ± 0.034
GATTTTAATG	0.981 ± 0.013
GATTTTAGTT	0.9848 ± 0.0086
GATTTTATGT	1.05 ± 0.086
GATTTTCGAA	1 ± 0.041
GATTTTCGAG	0.994 ± 0.031
GATTTTGGAC	1.031 ± 0.0078
GATTTTGGTG	0.971 ± 0.023
GATTTTGTTA	1.01 ± 0.025
GATTTTGTTG	0.979 ± 0.014
GATTTTTAAA	1.02 ± 0.035
GATTTTTCAG	1.019 ± 0.006

Sequence	switch fluorescence ratio
GATTTTTTGC	0.98176 ± 0.00098
GATTTTTTTG	0.985 ± 0.037
GATTTTTTTT	0.989 ± 0.029
GCAAAATTTC	1.02 ± 0.085
GCAAAGCGTC	0.9824 ± 0.0083
GCAAATGGTT	1.01 ± 0.053
GCAAATTCCG	1.026 ± 0.0095
GCAACGGGTC	1.03 ± 0.025
GCAACGGGTT	1.16 ± 0.21
GCAACTATT	2.42 ± 2
GCAAGAACGC	1.096 ± 0.0023
GCAAGGGTAT	1.01 ± 0.025
GCAAGGGTGG	1 ± 0.038
GCAAGGTAGC	1.07 ± 0.011
GCAAGTAGGG	1.02 ± 0.019
GCAAGTGTTC	1.01 ± 0.018
GCAATATGCA	1.03 ± 0.05
GCAATATTTC	2.31 ± 0.35
GCAATCGGGA	1.2 ± 0.087
GCAATTTGGT	1.03 ± 0.02
GCAATTTTTG	1.002 ± 0.0066
GCACACAAAA	1.05 ± 0.012
GCACATTGCT	1.02 ± 0.013
GCACCAATT	1.06 ± 0.072
GCACCATAGC	1.06 ± 0.011

Sequence	switch fluorescence ratio
GCACCTCAAT	1.25 ± 0.037
GCACGATGGT	0.972 ± 0.01
GCACGGGCAC	1.18 ± 0.18
GCACTAGGGA	0.9908 ± 0.0062
GCACTTTTCG	1.01 ± 0.025
GCAGAATATT	0.998 ± 0.029
GCAGACGGTG	1.05 ± 0.013
GCAGATGATC	1.027 ± 0.0014
GCAGATGCCT	1 ± 0.023
GCAGATTGGC	1.034 ± 0.01
GCAGATTTGG	0.978 ± 0.026
GCAGCGGACT	1.29 ± 0.042
GCAGCGGCTG	0.994 ± 0.014
GCAGCGGGGC	1.28 ± 0.038
GCAGCTGGCA	0.984 ± 0.017
GCAGGAAAAC	1.04 ± 0.018
GCAGGAAGAG	1.0184 ± 0.00041
GCAGGAAGGC	1.089 ± 0.0071
GCAGGACATA	1.06 ± 0.027
GCAGGACGGA	1.03 ± 0.04
GCAGGAGCAT	1.03 ± 0.052
GCAGGCACGG	0.976 ± 0.028
GCAGGGAGAG	0.964 ± 0.022
GCAGGGCGGG	0.99 ± 0.011
GCAGGGGAGG	1 ± 0.036

Sequence	switch fluorescence ratio
GCAGGGGGTA	0.999 ± 0.027
GCAGGGGTTC	1.16 ± 0.15
GCAGGTGTTC	1.14 ± 0.02
GCAGTACGGG	1.42 ± 0.26
GCAGTGGGTG	0.998 ± 0.012
GCAGTGTCCA	1.01 ± 0.032
GCAGTGTGCG	0.985 ± 0.025
GCAGTTGAGT	1.01 ± 0.017
GCAGTTTGTT	0.978 ± 0.019
GCATAACAGG	1.04 ± 0.045
GCATAAGATG	1 ± 0.024
GCATAGCAAT	1.054 ± 0.003
GCATATGGTT	0.988 ± 0.016
GCATATTTGA	0.981 ± 0.015
GCATCATATG	0.998 ± 0.028
GCATCATGTT	0.987 ± 0.044
GCATCCGAAG	1.274 ± 0.0035
GCATCGCCAT	1.02 ± 0.029
GCATCGTCGG	1.04 ± 0.058
GCATCGTGCG	1.01 ± 0.052
GCATCTAAGC	1.06 ± 0.043
GCATCTCGCG	1.01 ± 0.021
GCATGAAAAC	1.03 ± 0.031
GCATGAGTGC	1.07 ± 0.061
GCATGATAAC	1.04 ± 0.02

Sequence	switch fluorescence ratio
GCATGATAAT	1.004 ± 0.0013
GCATGATATG	1.01 ± 0.0088
GCATGCAGGA	1.01 ± 0.02
GCATGCATTG	0.97797 ± 0.0001
GCATGCGCGC	0.984 ± 0.012
GCATGCTGGG	1.04 ± 0.0064
GCATGCTGTC	0.983 ± 0.019
GCATGGCTGC	1.03 ± 0.036
GCATGGCTTT	1.01 ± 0.023
GCATGGGGAT	1.02 ± 0.051
GCATGGGTAG	0.982 ± 0.018
GCATGTCGGA	1.01 ± 0.039
GCATGTGGGC	0.967 ± 0.01
GCATGTGTGG	0.995 ± 0.065
GCATTAAGAT	1.02 ± 0.025
GCATTAAGTG	1 ± 0.024
GCATTAATGG	1.04 ± 0.051
GCATTAGGAC	1.24 ± 0.018
GCATTAGGTT	1.03 ± 0.019
GCATTATAT	1.03 ± 0.023
GCATTATTAA	1.01 ± 0.032
GCATTCGGAT	1.01 ± 0.014
GCATTGAAGC	0.995 ± 0.011
GCATTGGTTT	0.982 ± 0.011
GCATTGTTTT	0.96 ± 0.038
